The record followed here is article doi:10.1101/2023.04.18.537051 (bioRxiv, 2023).

To fix the notation:
B1: RafH (ribosome associated factor under hypoxia), M. smegmatis MSMEG_3935 (natural protein)
chain: MDVDVSTDGELPGAAEYAREKIGRLSRRAHRPVLHARVRLTRHGDPAVERPVIAQANLDVNGRQVRAQVEGVNAREAVDRLEARLRSRLERIAEHWEARRGGVPAEAGREWRHESEPARRPGYFPRPPEERRIIRRKSFSMVPCTVDEAALEMEMLDYDFHLFTEKGTGFAAVLYKGGPTGYRLVLVIPVPADELSPFEKPITISTHPAPCLTQRDAVERLGLLGLPFLFYIDAAEGRASVIYRRYDGHYGLITPADG

In assay [1] the target is T1, ribosomal protein bS1 of the M. smegmatis 70S ribosome (M. smegmatis (mc2155), UniProt A0QYY6 1-479).
T1 sequence: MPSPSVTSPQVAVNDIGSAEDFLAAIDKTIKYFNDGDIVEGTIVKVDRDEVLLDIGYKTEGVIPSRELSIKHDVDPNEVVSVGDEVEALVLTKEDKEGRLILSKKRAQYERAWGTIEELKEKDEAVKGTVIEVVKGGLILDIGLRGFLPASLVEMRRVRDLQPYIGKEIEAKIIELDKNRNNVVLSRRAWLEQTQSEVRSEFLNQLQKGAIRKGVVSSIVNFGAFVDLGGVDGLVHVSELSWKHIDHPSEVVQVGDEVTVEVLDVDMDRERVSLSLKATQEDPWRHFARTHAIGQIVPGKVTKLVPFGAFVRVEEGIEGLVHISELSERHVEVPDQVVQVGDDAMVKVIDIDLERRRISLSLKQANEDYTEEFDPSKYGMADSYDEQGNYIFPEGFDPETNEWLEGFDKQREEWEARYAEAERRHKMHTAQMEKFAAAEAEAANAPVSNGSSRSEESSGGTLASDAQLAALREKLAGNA
The assay can be described thus: cryo-EM structure.

Assay [2] has as its target B1. In words: cryo-EM structure.

For the molecule B1, the binding result in assay [1] is “binds”.

B2: ribosomal protein uS2 of the M. smegmatis 70S ribosome (natural protein)
chain: MAVVTMKQLLDSGAHFGHQTRRWNPKMKRFIFTDRNGIYIIDLQQTLTYIDKAYEFVKETVAHGGTVLFVGTKKQAQESIAEEATRVGMPYVNQRWLGGMLTNFSTVHKRLQRLKELEAMEQTGGFEGRTKKEILMLTREKNKLERSLGGIRDMQKVPSAVWVVDTNKEHIAVGEARKLGIPVIAILDTNCDPDVVDYPIPGNDDAIRSAALLTKVIASAVAEGLQARAGQGSGEKPAEGAEPLAEWEQELLAGATAGAADASAEGAAAPESSTDAS
Consider B2, for which the binding result in assay [1] is reported as “binds”.

B3: ribosomal protein uS9 of the M. smegmatis 70S ribosome (natural protein)
chain: MTDVTETEVVTESAEPREPVIIDRPIQTVGRRKEAVVRVRLVPGTGQFNLDGRTLENYFPNKVHQQLIKAPLVTVDRVDQFDIYAHLDGGGPSGQAGALRLAIARALILVQPEDRPALKKAGFLTRDPRAIERKKYGLKKARKAPQYSKR
Regarding B3, the binding result in assay [2] is reported as “binds”.

B4: ribosomal protein uS11 of the M. smegmatis 70S ribosome (natural protein)
chain: not shown
With B4, the binding result in assay [2] is listed as “binds”.
